Results from patent publication US20240116985A1, “STAPLED PEPTIDES AND METHODS THEREOF” (priority 2020, published 2024).
Starred links: 1 amine or outer side, 2 acyl side, 3 side chain; linkers in the order of their positions; H or OH if unused. Positions of bridges follow the written chain, without caps; N, C: chain ends. Non-standard residues stand in square brackets, D forms with d. Primed or numbered codes have the meaning given here. No end group written: not given here. PyrS2″ = (S)-3-amino-1-((pent-4-en-1-yloxy)carbonyl)pyrrolidine-3-carboxylic acid (stapling residue), C=CCCCOC(=O)N1CC[C@@](N[*:1])(C(=O)[*:2])C1; B5(4) = 2,2-bis(4-pentenyl)glycine = 2-amino-2-(pent-4-en-1-yl)hept-6-enoic acid (stitching residue), C=CCCCC(CCCC=C)(N[*:1])C(=O)[*:2]; B5(5) = 2,2-bis(4-pentenyl)glycine, 2-amino-2-(pent-4-en-1-yl)hept-6-enoic acid (stitching residue), C=CCCCC(CCCC=C)(N[*:1])C(=O)[*:2]; TfeGA = (S)-2-amino-3-((carboxymethyl)(2,2,2-trifluoroethyl)amino)propanoic acid, O=C([C@H](CN(CC(=O)[*:3])CC(F)(F)F)N[*:1])[*:2]; PyrS2 = (S)-3-amino-1-((pent-4-en-1-yloxy)carbonyl)pyrrolidine-3-carboxylic acid, C=CCCCOC(=O)N1CC[C@@](N[*:1])(C(=O)[*:2])C1; PyrS3 = (S)-3-amino-1-((hex-5-en-1-yloxy)carbonyl)pyrrolidine-3-carboxylic acid, C=CCCCCOC(=O)N1CC[C@@](N[*:1])(C(=O)[*:2])C1; Az2 = 3-amino-1-((pent-4-en-1-yloxy)carbonyl)azetidine-3-carboxylic acid, C=CCCCOC(=O)N1CC(N[*:1])(C(=O)[*:2])C1; Az3 = 3-amino-1-((hex-5-en-1-yloxy)carbonyl)azetidine-3-carboxylic acid, C=CCCCCOC(=O)N1CC(N[*:1])(C(=O)[*:2])C1; B5(12) = 2-amino-2-(pent-4-en-1-yl)hept-6-enoic acid (two olefin side chains), C=CCCCC(CCCC=C)(N[*:1])C(=O)[*:2]; B5(7) = 2-amino-2-(pent-4-en-1-yl)hept-6-enoic acid, two olefinic side chains, C=CCCCC(CCCC=C)(N[*:1])C(=O)[*:2]; B5(13) = 2-amino-2-(pent-4-en-1-yl)hept-6-enoic acid (two alkene chains), C=CCCCC(CCCC=C)(N[*:1])C(=O)[*:2]; B5(3) = 2,2-bis(4-pentenyl)glycine (stitching residue), C=CCCCC(CCCC=C)(N[*:1])C(=O)[*:2]; B5 = 2-amino-2-(pent-4-en-1-yl)hept-6-enoic acid, C=CCCCC(CCCC=C)(N[*:1])C(=O)[*:2]; Phe(3-COOH) = N[C@@H](Cc1cccc(C(=O)O)c1)C(=O)O; Phe(4-COOH) = N[C@@H](Cc1ccc(C(=O)O)cc1)C(=O)O; Phe(2-Cl) = N[C@@H](Cc1ccccc1Cl)C(=O)O; Bta = N[C@@H](Cc1csc2ccccc12)C(=O)O; αAllylPro = C=CC[C@@]1(C(=O)O)CCCN1; tBuAla = CC(C)(C)C[C@H](N)C(=O)O; 3Thi = N[C@@H](Cc1ccsc1)C(=O)O; S8 = C=CCCCCCC[C@](C)(N)C(=O)O; hSer = N[C@@H](CCO)C(=O)O; Abu = CC[C@H](N)C(=O)O; Aib = CC(C)(N)C(=O)O

Legend:
[1] = target: Bcat-Halo (UniProt P35222); test: NanoBRET Abs IC50 in HEK293 cells; Bcat-Halo, TCF4-Luc as competitor
Sequence of Bcat-Halo (P35222 whole entry, the tested form may be a part): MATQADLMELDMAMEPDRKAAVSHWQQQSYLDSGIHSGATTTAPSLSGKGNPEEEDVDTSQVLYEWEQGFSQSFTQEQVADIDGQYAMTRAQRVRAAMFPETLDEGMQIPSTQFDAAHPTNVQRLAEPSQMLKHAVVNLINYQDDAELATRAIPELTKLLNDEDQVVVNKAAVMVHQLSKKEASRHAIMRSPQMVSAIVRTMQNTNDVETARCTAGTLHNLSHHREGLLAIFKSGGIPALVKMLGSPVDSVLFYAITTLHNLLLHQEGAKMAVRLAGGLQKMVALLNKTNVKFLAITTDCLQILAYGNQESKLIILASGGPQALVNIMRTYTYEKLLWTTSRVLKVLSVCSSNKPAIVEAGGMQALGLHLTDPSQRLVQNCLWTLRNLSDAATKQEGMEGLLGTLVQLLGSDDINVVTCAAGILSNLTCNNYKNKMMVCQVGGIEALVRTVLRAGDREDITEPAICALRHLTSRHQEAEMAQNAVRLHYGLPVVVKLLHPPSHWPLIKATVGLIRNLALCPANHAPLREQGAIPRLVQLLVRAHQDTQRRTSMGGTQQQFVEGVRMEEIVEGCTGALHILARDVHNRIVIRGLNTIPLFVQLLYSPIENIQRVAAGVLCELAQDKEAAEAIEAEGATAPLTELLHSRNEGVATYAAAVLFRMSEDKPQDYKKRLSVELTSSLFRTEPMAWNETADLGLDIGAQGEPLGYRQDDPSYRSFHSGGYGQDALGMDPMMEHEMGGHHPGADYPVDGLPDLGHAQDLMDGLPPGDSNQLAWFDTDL

[2] = target: full-length beta-Catenin (Uniprot ID P35222) (Homo sapiens (Human)) (UniProt P35222); test: competition fluorescence polarization; full-length beta-catenin, 5FAM-TCF4(10-53) probe as competitor
Target sequence in this assay (P35222 whole entry, the tested form may be a part, one chain of several): as the sequence (P35222 whole entry, the tested form may be a part) above

[3] = target: full-length beta-Catenin (Uniprot ID P35222) (Homo sapiens (Human)) (UniProt P35222); test: fluorescence polarization competition; displacement of 5FAM-TCF4(10-53) from full-length beta-catenin
Target sequence in this assay (P35222 whole entry, the tested form may be a part, one chain of several): as the sequence (P35222 whole entry, the tested form may be a part) above

[4] = target: B-cat-Halo (beta-catenin HaloTag NanoBRET construct expressed in HEK293 cells) (UniProt P35222); test: NanoBRET Abs IC50; HEK293 cells transfected with B-cat-Halo and TCF4-Luc (competitor: TCF4-Luc)
Sequence of B-cat-Halo (beta-catenin HaloTag NanoBRET construct expressed in HEK293 cells) (P35222 whole entry): as the sequence (P35222 whole entry, the tested form may be a part) above

[5] = target: full-length beta-Catenin (Uniprot ID P35222) (Homo sapiens (Human)) (UniProt P35222); test: fluorescence polarization competition; full-length beta-catenin, competitor probe 5FAM-TCF4(10-53)
Target sequence in this assay (P35222 2-781 limits assumed): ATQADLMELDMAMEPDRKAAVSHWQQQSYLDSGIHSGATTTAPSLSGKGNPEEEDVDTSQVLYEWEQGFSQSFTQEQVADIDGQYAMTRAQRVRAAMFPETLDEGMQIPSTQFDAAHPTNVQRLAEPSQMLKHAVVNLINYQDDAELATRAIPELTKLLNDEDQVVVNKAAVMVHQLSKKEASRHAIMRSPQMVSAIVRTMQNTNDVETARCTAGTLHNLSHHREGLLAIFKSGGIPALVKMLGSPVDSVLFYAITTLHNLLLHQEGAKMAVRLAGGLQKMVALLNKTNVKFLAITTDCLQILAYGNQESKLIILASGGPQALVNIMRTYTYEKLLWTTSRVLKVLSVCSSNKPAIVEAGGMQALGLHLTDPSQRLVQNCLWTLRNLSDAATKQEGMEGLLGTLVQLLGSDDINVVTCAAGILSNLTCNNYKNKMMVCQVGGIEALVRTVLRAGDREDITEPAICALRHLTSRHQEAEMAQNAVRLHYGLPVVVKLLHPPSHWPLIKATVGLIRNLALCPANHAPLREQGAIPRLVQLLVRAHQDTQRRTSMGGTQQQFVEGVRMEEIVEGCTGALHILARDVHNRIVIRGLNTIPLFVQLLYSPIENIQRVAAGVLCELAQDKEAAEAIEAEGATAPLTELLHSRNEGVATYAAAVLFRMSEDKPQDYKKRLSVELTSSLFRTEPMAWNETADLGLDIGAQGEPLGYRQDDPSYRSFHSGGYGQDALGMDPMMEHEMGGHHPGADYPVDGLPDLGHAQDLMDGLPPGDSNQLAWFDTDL

[6] = target: full-length beta-Catenin (Uniprot ID P35222) (Homo sapiens (Human)) (UniProt P35222); test: fluorescence polarization competition; full-length beta-catenin with 5FAM-labeled TCF4 (10-53) probe as competitor
Target sequence in this assay (P35222 whole entry, the tested form may be a part, one chain of several): as the sequence (P35222 whole entry, the tested form may be a part) above

[7] = target: full-length beta-Catenin (Uniprot ID P35222) (Homo sapiens (Human)) (UniProt P35222); test: fluorescence polarization competition; 10 nM full-length beta-catenin with 10 nM 5FAM-TCF4(10-53) probe
Target sequence in this assay (P35222 2-781 limits assumed): as the sequence (P35222 2-781 limits assumed) above

[8] = target: full-length beta-Catenin (Uniprot ID P35222) (Homo sapiens (Human)) (UniProt P35222); test: FP competition vs 5FAM-TCF4(10-53), full-length beta-catenin
Target sequence in this assay (P35222 2-781 limits assumed): as above

[9] = target: Bcat-Halo (beta-catenin HaloTag construct expressed in HEK293 cells) (UniProt P35222); test: NanoBRET IC50 in HEK293 cells; Bcat-Halo with TCF4-Luc as competitor
Sequence of Bcat-Halo (beta-catenin HaloTag construct expressed in HEK293 cells) (P35222 whole entry): as the sequence (P35222 whole entry, the tested form may be a part) above

[10] = target: Bcat-Halo (UniProt P35222); test: NanoBRET Abs IC50, HEK293 cells, B-cat-Halo/TCF4-Luc; competitor TCF4-Luc
[11] = target: full-length beta-Catenin (Uniprot ID P35222) (Homo sapiens (Human)) (UniProt P35222); test: fluorescence polarization competition; 10 nM full-length beta-catenin with 10 nM 5FAM-TCF4 (residues 10-53) probe as competitor
Target sequence in this assay (P35222 2-781 limits assumed): as the sequence (P35222 2-781 limits assumed) above

[12] = target: full-length beta-Catenin (Uniprot ID P35222) (Homo sapiens (Human)) (UniProt P35222); test: fluorescence polarization competition; 5FAM-TCF4 10-53 probe on full-length beta-catenin
Target sequence in this assay (P35222 whole entry, the tested form may be a part, one chain of several): as the sequence (P35222 whole entry, the tested form may be a part) above

[13] = target: full-length beta-Catenin (Uniprot ID P35222) (Homo sapiens (Human)) (UniProt P35222); test: fluorescence polarization competition, peptide titrated against full-length beta-catenin + 5FAM-TCF4(10-53)
Target sequence in this assay (P35222 2-781 limits assumed): as the sequence (P35222 2-781 limits assumed) above

[14] = target: full-length beta-Catenin (Uniprot ID P35222) (Homo sapiens (Human)) (UniProt P35222); test: fluorescence polarization competition; full-length beta-catenin, competitor 5FAM-TCF4(10-53) probe
[15] = target: full-length beta-Catenin (Uniprot ID P35222) (Homo sapiens (Human)) (UniProt P35222); test: FP competition vs 5FAM-TCF4(10-53) probe on full-length beta-catenin
Target sequence in this assay (P35222 whole entry, the tested form may be a part, one chain of several): as the sequence (P35222 whole entry, the tested form may be a part) above

[16] = target: full-length beta-Catenin (Uniprot ID P35222) (Homo sapiens (Human)) (UniProt P35222); test: AlphaScreen competition vs biotin-TCF4(10-53) on full-length beta-catenin
Target sequence in this assay (P35222 whole entry, the tested form may be a part, one chain of several): as the sequence (P35222 whole entry, the tested form may be a part) above

[17] = target: Bcat-Halo (UniProt P35222); test: NanoBRET in HEK293 cells, Bcat-Halo/TCF4-Luc (competitor TCF4-Luc); absolute IC50
[18] = target: full-length beta-Catenin (Uniprot ID P35222) (Homo sapiens (Human)) (UniProt P35222); test: fluorescence polarization competition; full-length beta-catenin with 5FAM-TCF4(10-53) probe as competitor
[19] = target: Bcat-Halo (UniProt P35222); test: NanoBRET in HEK293 cells, Bcat-Halo/TCF4-Luc (competitor TCF4-Luc); percent inhibition at 10 uM peptide
[20] = target: full-length beta-Catenin (Uniprot ID P35222) (Homo sapiens (Human)) (UniProt P35222); test: fluorescence polarization competition; peptide displaces 5FAM-TCF4(10-53) from full-length beta-catenin
Target sequence in this assay (P35222 2-781 limits assumed): as the sequence (P35222 2-781 limits assumed) above

[21] = target: full-length beta-Catenin (Uniprot ID P35222) (Homo sapiens (Human)) (UniProt P35222); test: fluorescence polarization competition; full-length beta-catenin, 5FAM-TCF4(10-53) probe
[22] = target: full-length beta-Catenin (Uniprot ID P35222) (Homo sapiens (Human)) (UniProt P35222); test: fluorescence polarization competition, full-length beta-catenin with 5FAM-TCF4(10-53) probe
[23] = target: full-length beta-Catenin (Uniprot ID P35222) (Homo sapiens (Human)) (UniProt P35222); test: fluorescence polarization competition; 10 nM full-length beta-catenin with 10 nM 5FAM-labeled TCF4 residues 10-53 probe, peptide titrated
[24] = target: full-length beta-Catenin (Uniprot ID P35222) (Homo sapiens (Human)) (UniProt P35222); test: fluorescence polarization competition vs 5FAM-TCF4(10-53) on full-length beta-catenin
[25] = target: full-length beta-Catenin (Uniprot ID P35222) (Homo sapiens (Human)) (UniProt P35222); test: fluorescence polarization competition; peptide titrated against full-length beta-catenin + 5FAM-TCF4(10-53) probe

B1: I-571 (peptide)
peptide: Ac-[αAllylPro]D[Abu][B5(4)]DEAAFQ[S8]F[Bta]H-NH2
modifications: staple 1-4, 4-11
IC50 [1]: 15600 nM
IC50 [2]: 32 nM
EC50 [3]: 32 nM

B2: I-990 (peptide)
peptide: Ac-[αAllylPro]D[tBuAla][B5(3)]D[TfeGA]AAFF[PyrS2″][Phe(2-Cl)][Bta]S-NH2
modifications: staple 1-4, 4-11
IC50 [4]: 8800 nM
IC50 [5]: 41 nM
EC50 [6]: 41 nM

B3: I-2619 (peptide)
peptide: Ac-[αAllylPro]D[tBuAla][B5(4)]D[Phe(3-COOH)][Aib]AFL[Az3][3Thi][Bta]Q-NH2
modifications: staple 1-4, 4-11; not fully specified; printed as Ac-PL3-Asp-Npg-B5-Asp-3COOHF-Aib-Ala-Phe-Leu-Az3-3Thi-BztA-Gln-NH2
IC50 [7]: 36 nM

B4: I-996 (peptide)
peptide: Ac-[αAllylPro]D[tBuAla][B5(3)]D[TfeGA]AAF[hSer][S8][Phe(2-Cl)][Bta]Q-NH2
modifications: staple 1-4, 4-11
IC50 [4]: 11300 nM
IC50 [5]: 21 nM
EC50 [6]: 21 nM

B5: I-864 (peptide)
peptide: Ac-[αAllylPro]D[tBuAla][B5(3)]DHAAFN[PyrS2″][3Thi][Bta]Q-NH2
modifications: staple 1-4, 4-11
IC50 [8]: 12 nM
IC50 [9]: 29100 nM
IC50 [10]: 40000 nM
EC50 [11]: 12 nM

B6: I-817 (peptide)
peptide: Ac-[αAllylPro]D[tBuAla][B5]DDAAFN[PyrS2″][3Thi][Bta][dT]-NH2
modifications: staple 1-4, 4-11
IC50 [12]: 10 nM
EC50 [13]: 10 nM

B7: I-574 (peptide)
peptide: Ac-[αAllylPro]D[Abu][B5]DDAAFN[S8]F[Bta]H-NH2
modifications: staple 1-4, 4-11
IC50 [1]: > 20000 nM
EC50 [14]: 36 nM
IC50 [2]: 36 nM

B8: I-857 (peptide)
peptide: Ac-[αAllylPro]D[tBuAla][B5(12)]DNAAFN[PyrS2][3Thi][Bta]-NH2
modifications: staple 1-4, 4-11
IC50 [8]: 15 nM
IC50 [9]: 50600 nM
IC50 [10]: 30600 nM
EC50 [11]: 15 nM

B9: I-293 (peptide)
peptide: Ac-[αAllylPro]DA[B5(4)]D[TfeGA]AAFV[S8]F[Bta]Q-NH2
modifications: staple 1-4, 4-11
EC50 [15]: 140 nM
EC50 [16]: 41 nM

B10: I-769 (peptide)
peptide: Ac-[αAllylPro]D[tBuAla][B5(7)]D[TfeGA]AAFN[PyrS2][3Thi][Bta]H-NH2
modifications: staple 1-4, 4-11; also: earlier-eluting staple isomer
IC50 [17]: 13000 nM
EC50 [14]: 5 nM
IC50 [18]: 5 nM

B11: I-775 (peptide)
peptide: Ac-[αAllylPro]D[tBuAla][B5(13)]DDAAFN[PyrS3][3Thi][Bta]H-NH2
modifications: staple 1-4, 4-11
EC50 [14]: 7 nM
NanoBRET % inh @ 10 uM [19]: 5.1%
IC50 [20]: 6 nM

B12: I-582 (peptide)
peptide: Ac-[αAllylPro]D[tBuAla][B5(5)]DDAAFN[S8]F[Bta]H-NH2
modifications: staple 1-4, 4-11
IC50 [1]: 15800 nM
EC50 [14]: 17.5 nM
IC50 [2]: 17.5 nM

B13: I-931 (peptide)
peptide: Ac-[αAllylPro]D[tBuAla][B5(3)]D[TfeGA]AAFF[S8][Phe(2-Cl)][Bta]Q-NH2
modifications: staple 1-4, 4-11
IC50 [21]: 221 nM
EC50 [22]: 221 nM

B14: I-988 (peptide)
peptide: Ac-[αAllylPro]D[tBuAla][B5(3)]D[TfeGA]AAFF[PyrS2″]F[Bta]Q-NH2
modifications: staple 1-4, 4-11
IC50 [4]: 13900 nM
IC50 [5]: 5 nM
EC50 [6]: 5 nM

B15: I-2618 (peptide)
peptide: Ac-[αAllylPro]D[tBuAla][B5(3)]D[Phe(3-COOH)][Aib]AFL[Az3][3Thi][Bta]Q-NH2
modifications: staple 1-4, 4-11; not fully specified; printed as Ac-PL3-Asp-Npg-B5-Asp-3COOHF-Aib-Ala-Phe-Leu-Az3-3Thi-BztA-Gln-NH2
IC50 [7]: 77 nM

B16: I-2617 (peptide)
peptide: Ac-[αAllylPro]D[tBuAla][B5(3)]D[Phe(3-COOH)][Aib]AFL[Az2][3Thi][Bta]Q-NH2
modifications: staple 1-4, 4-11
IC50 [7]: 130 nM

B17: I-1984 (peptide)
peptide: PD[tBuAla][B5]D[Phe(3-COOH)]AAFL[PyrS2][Phe(2-Cl)][Bta]Q-NH2
modifications: staple 4-11; staple (positions not given here); not fully specified (residue 1, N-terminus, bridges); printed as ProAm5-Asp-Npg-B5-Asp-3COOHF-Ala-Ala-Phe-Leu-PyrS2-2C1F-BztA-Gln-NH2
IC50 [23]: 320 nM

B18: I-339 (peptide)
peptide: Ac-[αAllylPro]DA[B5(4)]DDAAFV[S8][Phe(4-COOH)][Bta]Q-NH2
modifications: staple 1-4, 4-11; also: earlier-eluting staple isomer
IC50 [24]: 5000 nM
EC50 [25]: 5000 nM

B19: I-770 (peptide)
peptide: Ac-[αAllylPro]D[tBuAla][B5(7)]D[TfeGA]AAFN[PyrS2][3Thi][Bta]H-NH2
modifications: staple 1-4, 4-11; also: later-eluting staple isomer
IC50 [17]: 13700 nM
EC50 [14]: 5 nM
IC50 [18]: 5 nM

B20: I-1985 (peptide)
peptide: PD[tBuAla][B5]D[Phe(3-COOH)]AAFL[PyrS2][Phe(2-Cl)][Bta]Q-NH2
modifications: staple 4-11; staple (positions not given here); not fully specified (residue 1, N-terminus, bridges); printed as ProAm6-Asp-Npg-B5-Asp-3COOHF-Ala-Ala-Phe-Leu-PyrS2-2C1F-BztA-Gln-NH2
IC50 [23]: 325 nM

B21: I-1986 (peptide)
peptide: PD[tBuAla][B5]D[TfeGA]AAFT[PyrS2][Phe(2-Cl)][Bta]Q-NH2
modifications: staple 4-11; staple (positions not given here); not fully specified (residue 1, N-terminus, bridges)
IC50 [23]: 502 nM
